This is an account of results in patent EP1169642B1.

The target of the assay is purified human complement Factor H (human) (UniProt P08603). The experiment in a line: steady state fluorescence titration of purified human Factor H.
purified human complement Factor H (human), sequence (P08603 19-1231 limits assumed): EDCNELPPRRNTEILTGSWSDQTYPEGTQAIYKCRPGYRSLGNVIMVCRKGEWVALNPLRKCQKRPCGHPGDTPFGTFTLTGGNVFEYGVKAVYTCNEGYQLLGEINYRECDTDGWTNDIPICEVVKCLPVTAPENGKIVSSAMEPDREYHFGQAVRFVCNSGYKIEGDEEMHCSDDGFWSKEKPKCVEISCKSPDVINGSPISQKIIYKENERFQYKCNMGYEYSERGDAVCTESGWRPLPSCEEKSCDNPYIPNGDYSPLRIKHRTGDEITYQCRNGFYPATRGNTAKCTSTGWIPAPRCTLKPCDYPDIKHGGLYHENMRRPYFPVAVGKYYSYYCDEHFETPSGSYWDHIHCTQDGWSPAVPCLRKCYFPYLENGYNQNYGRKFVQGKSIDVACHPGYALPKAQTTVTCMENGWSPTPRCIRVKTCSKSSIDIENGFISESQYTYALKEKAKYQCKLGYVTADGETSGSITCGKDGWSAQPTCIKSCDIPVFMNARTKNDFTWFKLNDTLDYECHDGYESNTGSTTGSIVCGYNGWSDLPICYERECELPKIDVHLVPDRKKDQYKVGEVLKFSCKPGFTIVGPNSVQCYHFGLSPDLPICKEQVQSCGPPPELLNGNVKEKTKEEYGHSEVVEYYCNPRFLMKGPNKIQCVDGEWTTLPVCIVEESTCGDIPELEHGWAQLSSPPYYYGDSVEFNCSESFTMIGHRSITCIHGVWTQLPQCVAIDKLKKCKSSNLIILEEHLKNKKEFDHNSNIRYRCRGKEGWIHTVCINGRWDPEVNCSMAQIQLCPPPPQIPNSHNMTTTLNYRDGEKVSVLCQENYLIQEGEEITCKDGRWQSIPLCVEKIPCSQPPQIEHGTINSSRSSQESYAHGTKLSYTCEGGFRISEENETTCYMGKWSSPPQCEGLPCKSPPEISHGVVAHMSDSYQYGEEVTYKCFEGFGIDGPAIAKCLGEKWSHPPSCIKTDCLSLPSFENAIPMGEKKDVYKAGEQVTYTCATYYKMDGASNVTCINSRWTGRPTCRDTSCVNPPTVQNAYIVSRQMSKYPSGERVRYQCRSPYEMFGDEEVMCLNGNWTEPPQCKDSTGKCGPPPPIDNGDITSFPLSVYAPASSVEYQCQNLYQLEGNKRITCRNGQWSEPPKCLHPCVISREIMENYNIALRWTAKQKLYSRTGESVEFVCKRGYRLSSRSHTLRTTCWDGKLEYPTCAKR

B1: recombinant dentin matrix protein 1 (rDMP1) (ligand)
chain: LPVTRYQNNESEDSEEWKGHLAQAPTPPLESSESSEGSKVSSEEQANEDPSDSTQSEEGLGSDDHQYIYRLAGGFSRSTGKGGDDKDDDEDDSGDDTFGDDDSGPGPKDRQEGGNSRLGSDEDSDDTIQASEESAPQGQDSAQDTTSESRELDNEDRVDSKPEGGDSTQESESEEHWVGGGSDGESSHGDGSELDDEGMQSDDPESIRSERGNSRMNSAGMKSKESGENSEQANTQDSGGSQLLEHPSRKIFRKSRISEEDDRSELDDNNTMEEVKSDSTENSNSRDTGLSQPRRDSKGDSQEDSKENLSQEESQNVDGPSSESSQEANLSSQENSSESQEEVVSESRGDNPDPTTSYVEDQEDSDSSEEDSSHTLSHSKSESREEQADSESSESLNFSEESPESPEDENSSSQEGLQSHSSSAESQSEESHSEEDDSDSQDSSRSKEDSNSTESKSSSEEDGQLKNIEIESRKLTVDAYHNKPIGDQDDNDCQDGY
Take B1: the stoichiometry (DMP1:Factor H) worked out at 1 molar ratio.
